Target: T1, human antithrombin β complexed with heparin (ATβH) (human, UniProt P01008 33-464, lacks glycosylation at Asn135 (β glyco-isoform); complexed with heparin; biotinylated on surface lysines for panning and ELISA)
T1 construct: mature; heparin is not a protein; also called human ATβH; hATβH
Test: panning and screening of a human antibody library against human ATβ in complex with heparin
Excerpt: A four-arm panning strategy was designed to discover Fabs specifically against ATβH from a human Fab library (Dyax Fab310). The library was first depleted with biotinylated heparin/Fondaparinux-bound ATα and biotinylated ATα and then was panned against heparin/Fondaparinux-bound ATβ and biotinylated ATβ on streptavidin beads, respectively. For each round of panning, the heparin-bound ATα (ATαH) was included in the binding buffer as a competitor. To keep hATβ in active conformation (heparin bound form), heparin was added to the wash buffer in all three rounds of panning. After panning, pooled clones were screened for hATβ and hATβH specific binding and counter-screened for hATα by ELISA. These clones were also examined for differential binding to rabbit ATβ over rabbit ATα. […] Positive hits (Fabs) were reformatted into IgG1, expressed in HEK293 cells and purified by protein-A column. These purified IgG1s were extensively tested in AT-depleted human plasma and hemA patient plasma for TGA assay (Thrombin Generation Assay) and dPT (diluted Prothrombin Time) assay to measure the clotting time.

T1 sequence (P01008 33-464, one chain of several): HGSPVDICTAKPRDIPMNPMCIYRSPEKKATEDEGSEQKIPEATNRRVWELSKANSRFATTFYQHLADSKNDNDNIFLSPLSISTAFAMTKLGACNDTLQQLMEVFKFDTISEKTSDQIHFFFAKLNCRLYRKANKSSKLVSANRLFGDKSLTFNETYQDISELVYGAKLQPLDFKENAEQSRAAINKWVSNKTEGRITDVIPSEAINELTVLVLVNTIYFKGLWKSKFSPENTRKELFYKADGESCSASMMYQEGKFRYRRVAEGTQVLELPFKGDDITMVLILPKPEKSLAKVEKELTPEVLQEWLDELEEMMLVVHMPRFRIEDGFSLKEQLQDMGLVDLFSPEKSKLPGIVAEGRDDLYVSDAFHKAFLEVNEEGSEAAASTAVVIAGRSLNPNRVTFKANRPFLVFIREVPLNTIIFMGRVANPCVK

- binding result: binds
B1: TPP2009 hIgG1 (antibody, V domains shown)
VH: EVQLLESGGGLVQPGGSLRLSCAASGFTFSAYRMGWVRQAPGKGLEWVSRIYSSGGRTRYADSVKGRFTISRDNSKNTLYLQMNSLRAEDTAVYYCAREKASDLSGSFSEALDYWGQGTLVTVSS
VL: AQSVLTQDPAVSVALGQTVRITCQGDSLRSYYASWYQQKPGQAPVLVIYGKNNRPSGIPDRFSGSSSGNTASLTITGAQAEDEADYYCNSRDSSGNHLVFGGGTKLTVLG
